Source: the DeepSol protein solubility set

Assay: soluble on expression in E. coli; label from the status in PepcDB or PDB records
In the case of “ATDMWLERAADVSWEAGAAITGTSERLDVQLDDDGDFHLLNDPGVGGGGSGGGGGGVFWDTPSPKVYPKGDTTPGVYRIMARGILGRYQAGVGVMHEGVFHTLWHTTRGAAIMSGEGRLTPYWGNVKEDRVTYGGPWKLDQKWNGVDDVQMIVVEPGKPAINVQTKPGIFKTAHGEIGAVSLDYPIGTSGSPIVNSNGEIIGLYGNGVILGNGAYVSAIVQGERVEEPVPEAYNPEMLKKRQLTVLDLHPGAGKTRRILPQIIKDAIQKRLRTAVLAPTRVVAAEMAEALRGLPVRYLTPAVQREHSGNEIVDVMCHATLTHRLMSPLRVPNYNLFVMDEAHFTDPASIAARGYIATRVEAGEAAAIFMTATPPGTSDPFPDTNSPVHDVSSEIPDRAWSSGFEWITDYAGKTVWFVASVKMSNEIAQCLQRAGKRVIQLNRKSYDTEYPKCKNGDWDFVITTDISEMGANFGASRVIDCRKSVKPTILDEGEGRVILSVPSAITSASAAQRRGRVGRNPSQIGDEYHYGGGTSEDDTMLAHWTEAKILLDNIHLPNGLVAQLYGPERDKTYTMDGEYRLRGEERKTFLELIKTADLPVWLAYKVASNGIQYNDRKWCFDGPRSNIILEDNNEVEIITRIGERKVLKPRWLDARVYSDHQSLKWFKDFAAGKR”, the “soluble on expression in E. coli” value is reported as “soluble”.
For “ATTLYLTRHGETKWNVERRMQGWQDSPLTEKGRQDAMRLGKRLEAVELAAIYTSTSGRALETAEIVRGGRLIPIYQDERLREIHLGDWEGKTHDEIRQMDPIAFDHFWQAPHLYAPQRGERFCDVQQRALEAVQSIVDRHEGETVLIVTHGVVLKTLMAAFKDTPLDHLWSPPYMYGTSVTIIEVDGGTFHVAVEGDVSHIEEVKEV”, the “soluble on expression in E. coli” value was “soluble”.
For “AVKTYGMFIGTQFDSSKFLYSAFQAESNLGIWRFAHDKRPKKQSFCRTEKSRRIAIDIVQGWLAVDYDLVGDVRIIRSVLVVSSEPIQTDYTNFTGLTGKPMELSQLLTITQSQSSAKLVCSCFRVTDKQIHDAMEKQDCTSLTQLQNKLKCGTNCGSCISQIKQMVDSHQHQKGKQQASQQSLAIQIK”, the “soluble on expression in E. coli” value was “not soluble”.
For “AVPETRPNHTIYINNLNEKIKKDELKKSLYAIFSQFGQILDILVSRSLKMRGQAFVIFKEVSSATNALRSMQGFPFYDKPMRIQYAKTDSDIIAKMKGTFVERDRKREKRKPKSQE”, the “soluble on expression in E. coli” value was “soluble”.
For “AVVASLKPVGFIASAIADGVTETEVLLPDGASEHDYSLRPSDVKRLQNADLVVWVGPEMEAFMQKPVSKLPGAKQVTIAQLEDVKPLLMKSIHGDDDDHDHAEKSDEDHHHGDFNMHLWLSPEIARATAVAIHGKLVELMPQSRAKLDANLKDFEAQLASTETQVGNELAPLKGKGYFVFHDAYGYFEKQFGLTPLGHFTVNPEIQPGAQRLHEIRTQLVEQKATCVFAEPQFRPAVVESVARGTSVRMGTLDPLGTNIKLGKTSYSEFLSQLANQYASCLKGD”, the “soluble on expression in E. coli” value was “soluble”.
For “AVVNTDDYVTRTSIFYHAGSSRLLTVGDPYFRVPAGGGNKQDIPKVSAYQYRVFRVQLPDPNKFGLPDTSIYNPETQRLVWACAGVEIGRGQPLGVGLSGHPFYNKLDDTESSHAATSNVSEDVRDNVSVDYKQTQLCILGCAPAIGEHWAKGTASKSRPLSQGDCPPLELKNTVLEDGDMVDTGYGAMDFSTLQDTKCEVPLDICQSICKYPDYLQMSADPYGDSMFFCLRREQLFARHFWNRAGTMGDTVPQSLYIKGTGMRASPGSCVYSPSPSGSIVTSDSQLFNKPYWLHKAQGHNNGVCWHNQLFVTVVDTTRSTNLTICASTQSPVPGQYDATKFKQYSRHVEEYDLQFIFQLCTITLTADVMSYIQSMNSSILEDWNGGSGGNKDPYDKLKFWNVDLKEKFSLDLDQYPLGRKFLVQAGL”, the “soluble on expression in E. coli” value was “soluble”.
For “CGGCGEDVVGDGAGVVALDRVFHVGCFVCSTCRAQLRGQHFYAVERRAYCEGCYVATLE”, the “soluble on expression in E. coli” value was “soluble”.
In the case of “CHQDCPQMSPQPEMDRFASEFGEQDVAVDGQAPENALENDEPKYAPQVISEQNAFLMREMMYSNIWGGGNWREGTGWNGTGWRAQKLERRDIGGKTGTTNDSKDA”, the “soluble on expression in E. coli” value is reported as “not soluble”.
For “DALEVAEKVTAVIFDKTGTLTKLKESAKPAVQELKRMGIKVGMITGDNWRSAEAISRELNLDLVIAEVLPHQKSEEVKKLQAKEVVAFVGDGINDAPALAQADLGIAVGSGDIVLIRDDLRDVVAAIQ”, the “soluble on expression in E. coli” value was “soluble”.
In the case of “DAQNYFQATEIRTMIALLQLIDNPYQDIPLAAVLRSPIVGLKENELVLIRLANKETSYYEAFLTFNQKMEPTMEEAVVQEKTIRFAESLEKWREQARRNQISNLLWTIYRETAYLDYVGGLPVGKQRQANLYALVDRAAAYEKTTFRGLFQFVRFIEKMQEKDKDLAEPVVLSEENAVRV”, the “soluble on expression in E. coli” value is reported as “not soluble”.
For “DDSLGEAVTTRAEALTIPAVLRARNLLSTTVARTPLVCDGTLPPFVPVAAPPGAATMQTPFHRMLATADDLLFNGVACWALDRDESGTCIGAIHIPLDTWQIEENTVRVNGKAVDPMEVCIFVGIHGGLLTHASETFTDARNLVRAAARVAQNPAALIELRQTNNAQLSPDDVDRIINGYVAARRGRNSGVGFSSSGLEVHEHEMAKENLLIEGRNAAAVDVARAMNVPAAFIDATVGGTSLSYQNAASRMIELVTFGVEPLMSAIEARLNQPDMHADHLANPLKFDPAALLDAIPTTPTIGAQPHGENS”, the “soluble on expression in E. coli” value was “soluble”.
With “DEAMLKIEQQEVVKNLPVGSKLVQLKYAGHSTDEPLLNQIYKEFEVTANILYGNIEILDGIPVGEMVVILSGDEEKLRQACQAITDSQVQLTLLKEGG” the “soluble on expression in E. coli” value was “not soluble”.
For “DEIIDGEDELEQDDPFEGEDIDPESIQEPEASYDSSSSPSGASNAEDDWQDEHRVRKFHINGVTVKAIAERVQYYDADGKLVTESFKDYTRKTMAKQFTSMDDFVKRWQDADKKQAIIDELAEEGIIWEALELEVGKDLDPFDMICHVVYDQPALTRKERADNVKKRNYFTKYGETAQQVLNNLLDKYADEGVQEIENIHVLKVKPFDEMGRPAEIVKKCFGGKEQYLEAISELEAEIY”, the “soluble on expression in E. coli” value was “not soluble”.
For “DGMTKLTFGGHPFLLGFEQLERLVERTAKTASEGYPPFNIEAVAENAYRITLAVAGFREDDIAITVEDRQLVVRGRQAEDPAERVFLHRGIASRAFQRSFVLADGVEVAGATMEHGLLHIDLHRQVPQAVVQTIPIGRNR”, the “soluble on expression in E. coli” value was “not soluble”.
In the case of “DGTADKTKGEVSNDKVSTDEKHVVSLDPNDQSKGKGVVIDNVANGDISATSTDAINGSQLYAVAKGVTNLAGQVNNLEGKVNKVGKRADAGTASALAASQLPQATMPGKSMVAIAGSSYQGQNGLAIGVSRISDNGKVIIRLSGTTNSQGKTGVAAGVGYQW”, the “soluble on expression in E. coli” value is reported as “soluble”.
With “DGTCVNTNSQITANSQCVKSTATNCYIDNSQLVDTSICTRSQYSDANVKKSVTTDCNIDKSQVYLTTCTGSQYNGIYIRSSTTTGTSISGPGCSISTCTITRGVATPAAACKISGCSLSAM” the “soluble on expression in E. coli” value was “soluble”.
With “DHDFKYEVSANLSTVRNRVTSLGFGTDSYISGAYITNVGEEIGKFYGWVYDGIARTQADLDNHATQEGAQIGDCLYKDVSGPDGKPDGKVDANDQVVLGSGMPKINFGLNARFEYKRFDLSIATFGALNYHVSDDIHNSLNSCYGWGNKDVAMLDANRFSEDGSTYLSSVPRTYVTNSASLAWNDLFSDRKIQNAAYWKIANIELGYNFPNEWFGKYVSDVRFYVSAQNLHTFTGYKGYNVDYAGGTFTPGYNFCSYPTARTFMCGVHFTF” the “soluble on expression in E. coli” value was “not soluble”.
With “DHVLLITGGTRGIGLLCARHFAECYGVKKLVLTGREQLPPREEWARFKTSNTSLAEKIQAVRELEAKGVQVEMLSLTLSDDAQVEQTLQHIKRTLGPIGGVIHCAGLTDMDTLAFIRKTSDDIQRVLEPKVSGLTTLYRHVCNEPLQFFVLFSSVSAIIPELSAGQADYAMANSYMDYFAEAHQKHAPIISVQWPNWKETGMGEVTNQAYRDSGLLSITNSEGLRFLDQIVSKKFGPVVLPAMANQTNWEPELLMK” the “soluble on expression in E. coli” value was “soluble”.
For “DIECPTCGRPMGIRTASTGVFLGCSGYALPPKERCKTTINLGDEEGIINVLEEDVETAALRAKKRCPICETAMDAYLIDDKRKMHVCGNNPNCEGYVVEYGEFKVKGYDGPVVECDKCGSDMVLKNGRFGKYMDCTSETCKNTRKILK”, the “soluble on expression in E. coli” value was “not soluble”.
With “DILVFTPRKSDAGISVILYPGAFVDALSYAPLANKLASSGYKTYIAEMPLNLAVFGKNRAADIIDEAPDEKFVIGGHSLGGVMSSRFAHENESEIEGVFFLASYPDKKGSLKNASFPALSITGTKDDVLNKDAYDKNKKYLPKDTTFVSIEGGNHAQFGSYGAQHGDGKATISEAEQTDQVSNALIAWLNTSVKNQER” the “soluble on expression in E. coli” value was “soluble”.
For “DIQMTQSPSSLSASVGDRVTITCKASQDIKSFLSWYQQKPEKAPKSLIYYATSLADGVPSRFSGSGSGTDYTLTISSLQPEDFATYYCLQHGESPYTFGGGTKVEIKRTVAAPSVFIFPPSDEQLKSGTASVVCLLNNFYPREAKVQWKVDNALQSGNSQESVTEQDSKDSTYSLSSTLTLSKADYEKHKVYACEVTHQGLSSPVTKSFNRGECT”, the “soluble on expression in E. coli” value was “soluble”.
For “DIQMTQTTSSLSASLGDRVTISCSASQDISSYLNWYQQKPEGTVKLLIYYTSSLHSGVPSAFSGSGSGTDYSLTISNLEPEDFATYYCQQYSKFPWTFGGGTKLEIKRADAAPTVSIFPPSSEQLTSGGASVVCFLNNFYPKDINVAWAIDGSAAANGVLNSWTDQDSKDSTYSMSSTLTLTADAYEAANSYTCAATHKTSTSPIVKSFNANEC”, the “soluble on expression in E. coli” value was “soluble”.
In the case of “DITVYNGQHKEAAQAVADAFTRATGIKVKLNSAKGDQLAGQIKEEGSRSPADVFYSEQIPALATLSAANLLEPLPASTINETRGKGVPVAAKKDWVALSGRSRVVVYDTRKLSEKDLEKSVLNYATPKWKNRIGYVPTSGAFLEQIVAIVKLKGEAAALKWLKGLKEYGKPYAKNSVALQAVENGEVDAALINNYYWHAFAREKGVQNVHTRLNFVRHRDPGALVTYSGAAVLKSSQNKDEAKKFVAFLAGKEGQRALTAVRAEYPLNPHVVSTFNLEPIAKLEAPQVSATTVSEKEHATRLLEQAGMK”, the “soluble on expression in E. coli” value is reported as “soluble”.
In the case of “DKDNPKGLPMLSVDEPTLTMDFMVNTSPLAGTEGKFVTSRQIRDRLQKELLTNVALRVEDTADADVFRVSGRGELHLTILLENMRREGYELAVGKPRVVYRDIDGQKCEPYENLTVDVPDDNQGAVMEELGRRRGELTNMESDGNGRTRLEYHIPARGLIGFQGEFMTLTRGVGLMSHVFDDYAPVKPDMPGRHNGVLVSQEQGEAVAYALWNLEDRGRMFVSPNDKIYEGMIIGIHSRDNDLVVNPLKGKKLTNIRASGTDEAVRLTTPIKLTLEGAVEFIDDDELVEITPQSIRLRKRYLSELERRRHFKKLD”, the “soluble on expression in E. coli” value is reported as “not soluble”.
In the case of “DLKILDPIWTTAYITRNHGYMVYDTLFSLDAQGNIQPQMVDTVTTSEDGLMVTMTLRDGLVWHDGAPVTAADCVASINRWGSKDAMGQKMMSFVESLEATDDKTITFKLSTPTGLVTLALAKPSSNVPFMMPERVASTPSSEQIADYTGSGPFVFRQ”, the “soluble on expression in E. coli” value is reported as “not soluble”.
For “DLTGKSIVGYRISGGLDIPIGYGLYVNPSLAFHSKGMKTNLEGVALGALGLNSSLKVKTHYIEIPVHLGYRLSLLNLVSVAVQAGPYFSYAIKGDGTVVRKDGQETTFDIYKDGLKEMINAKRFDVGLGAAAMVGYSNFYLLIGADFGLINTVKDIKPETKNLEATLKNTSFHVGLGIRL”, the “soluble on expression in E. coli” value was “not soluble”.
